Measurements as given in the RNAGym collection of RNA variant scans (doi:10.7554/elife.80360).

B1: Hairpin Ribozyme (parent)
chain: GUCCUCUUUCACGUGCGCGUGAAAGAGAGAAGUGAACCAGAGAAACACACGUUGUGGUAUAUUACCUGGUA

Variants of: B1
Assay: self-cleavage, relative activity (ratio to wild type); higher = more cleavage; co-transcriptional
Variant GUCCUCUUUCACGUGCGCGUGAAAGAGAGAAGUGAACCAGAGAAACACACGUUGUGGUAUAUUACCGCGUA has a self-cleavage of 0.177. With GUCCUCUUUCACGUGCGCGUGAAAGAGAGAAGUGAACCAGAGAAACACACGUUGUGGUAUAUUACCUGUUA the self-cleavage was 0.243. GUCCUCUUUCACGUGCGCGUGAAAGAGAGAAGUGAACCAGAGAAACACACGUUGUGGUAUAUUACCUGAUA gave a self-cleavage of 0.407. For GUCCUCUUUCACGUGCGCGUGAAAGAGAGAAGUGAACCAGAGAAACACACGUUGUGGUAUAUUACCUGCUA, the self-cleavage was 0.289. For GUCCUCUUUCACGUGCGCGUGAAAGAGAGAAGUGAACCAGAGAAACACACGUUGUGGUAUAUUACCUAGUU, the self-cleavage was 0.15. For GUCCUCUUUCACGUGCGCGUGAAAGAGAGAAGUGAACCAGAGAAACACACGUUGUGGUAUAUUACCCGAUA, the self-cleavage was 0.178. GUCCUCUUUCACGUGCGCGUGAAAGAGAGAAGUGAACCAGAGAAACACACGUUGUGGUAUAUUACCUGUCA gave a self-cleavage of 0.304. With GUCCUCUUUCACGUGCGCGUGAAAGAGAGAAGUGAACCAGAGAAACACACGUUGUGGUAUAUUACCUGGCC the self-cleavage was 1.79. For GUCCUCUUUCACGUGCGCGUGAAAGAGAGAAGUGAACCAGAGAAACACACGUUGUGGUAUAUUACCUGGCU, the self-cleavage was 1.64. With GUCCUCUUUCACGUGCGCGUGAAAGAGAGAAGUGAACCAGAGAAACACACGUUGUGGUAUAUUACCUUGUC the self-cleavage was 0.329. In the case of GUCCUCUUUCACGUGCGCGUGAAAGAGAGAAGUGAACCAGAGAAACACACGUUGUGGUAUAUUACCUUGUG, the self-cleavage is reported as 0.253. Work on GUCCUCUUUCACGUGCGCGUGAAAGAGAGAAGUGAACCAGAGAAACACACGUUGUGGUAUAUUACCUCGCA yielded a self-cleavage of 0.339. For GUCCUCUUUCACGUGCGCGUGAAAGAGAGAAGUGAACCAGAGAAACACACGUUGUGGUAUAUUACCGGGUG, the self-cleavage was 0.208. GUCCUCUUUCACGUGCGCGUGAAAGAGAGAAGUGAACCAGAGAAACACACGUUGUGGUAUAUUACCUGGCA showed a self-cleavage of 0.924. Work on GUCCUCUUUCACGUGCGCGUGAAAGAGAGAAGUGAACCAGAGAAACACACGUUGUGGUAUAUUACCUGGAA yielded a self-cleavage of 0.926. With GUCCUCUUUCACGUGCGCGUGAAAGAGAGAAGUGAACCAGAGAAACACACGUUGUGGUAUAUUACCUGGGA the self-cleavage was 0.844. In the case of GUCCUCUUUCACGUGCGCGUGAAAGAGAGAAGUGAACCAGAGAAACACACGUUGUGGUAUAUUACCUGCUC, the self-cleavage is reported as 0.609. Variant GUCCUCUUUCACGUGCGCGUGAAAGAGAGAAGUGAACCAGAGAAACACACGUUGUGGUAUAUUACCUGCUG has a self-cleavage of 0.316. GUCCUCUUUCACGUGCGCGUGAAAGAGAGAAGUGAACCAGAGAAACACACGUUGUGGUAUAUUACCUCGUG gave a self-cleavage of 0.233. For GUCCUCUUUCACGUGCGCGUGAAAGAGAGAAGUGAACCAGAGAAACACACGUUGUGGUAUAUUACCUCGUC, the self-cleavage was 0.436. GUCCUCUUUCACGUGCGCGUGAAAGAGAGAAGUGAACCAGAGAAACACACGUUGUGGUAUAUUACCUAGAA showed a self-cleavage of 0.156. For GUCCUCUUUCACGUGCGCGUGAAAGAGAGAAGUGAACCAGAGAAACACACGUUGUGGUAUAUUACCUGACA, the self-cleavage was 0.387. Variant GUCCUCUUUCACGUGCGCGUGAAAGAGAGAAGUGAACCAGAGAAACACACGUUGUGGUAUAUUACCUGAGA has a self-cleavage of 0.325. GUCCUCUUUCACGUGCGCGUGAAAGAGAGAAGUGAACCAGAGAAACACACGUUGUGGUAUAUUACCUGAUU showed a self-cleavage of 0.152. In the case of GUCCUCUUUCACGUGCGCGUGAAAGAGAGAAGUGAACCAGAGAAACACACGUUGUGGUAUAUUACCUGAUC, the self-cleavage is reported as 0.912. GUCCUCUUUCACGUGCGCGUGAAAGAGAGAAGUGAACCAGAGAAACACACGUUGUGGUAUAUUACCUUUUA gave a self-cleavage of 0.183. GUCCUCUUUCACGUGCGCGUGAAAGAGAGAAGUGAACCAGAGAAACACACGUUGUGGUAUAUUACCUUAUA gave a self-cleavage of 0.3. GUCCUCUUUCACGUGCGCGUGAAAGAGAGAAGUGAACCAGAGAAACACACGUUGUGGUAUAUUACCUGGAC showed a self-cleavage of 1.21. GUCCUCUUUCACGUGCGCGUGAAAGAGAGAAGUGAACCAGAGAAACACACGUUGUGGUAUAUUACCGGAUA showed a self-cleavage of 0.134.
